Experimental data published in patent US20230365705A1 (DYNAMICURE BIOTECHNOLOGY, published 2023).
Values belong to the binder of their own block, whether it stands above or below them.

How the values were obtained:
[1] = target: T1, Human CD93 on cells (human CD93 expressing CHO cells; HUVEC, U937 and KG1a cells) (human, UniProt Q9NPY3 22-652); test: flow cytometry on human CD93 expressing CHO cells
T1 construct: whole, on cells; also called hCD93 expressing CHO cells; hCD93 CHO cells
T1 sequence (looked up): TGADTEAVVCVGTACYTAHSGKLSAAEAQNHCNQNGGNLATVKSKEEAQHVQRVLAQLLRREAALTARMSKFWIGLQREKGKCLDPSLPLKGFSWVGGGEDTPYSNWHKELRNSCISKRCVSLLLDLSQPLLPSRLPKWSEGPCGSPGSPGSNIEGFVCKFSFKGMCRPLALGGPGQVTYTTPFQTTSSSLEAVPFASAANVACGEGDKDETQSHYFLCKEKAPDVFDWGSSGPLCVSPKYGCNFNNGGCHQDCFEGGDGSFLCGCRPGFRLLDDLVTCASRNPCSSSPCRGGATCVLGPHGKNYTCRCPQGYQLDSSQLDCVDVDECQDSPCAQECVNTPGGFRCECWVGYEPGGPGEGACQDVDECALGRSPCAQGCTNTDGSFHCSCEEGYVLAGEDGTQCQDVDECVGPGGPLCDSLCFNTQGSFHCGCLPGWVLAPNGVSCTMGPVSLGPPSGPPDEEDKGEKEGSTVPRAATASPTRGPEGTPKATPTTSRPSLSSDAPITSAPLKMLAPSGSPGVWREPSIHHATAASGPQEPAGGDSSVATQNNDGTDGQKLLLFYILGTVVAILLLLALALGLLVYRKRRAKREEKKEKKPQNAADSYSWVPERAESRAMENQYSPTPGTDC
Experimental: Human CD93 expressing CHO cells were detached by incubation with TrypLE reagents (Thermo Fisher), which preserves the integrity of CD93 on the cell surface. Then the cells were incubated with serially diluted anti-CD93 antibodies for 30 minutes in 4° C. After washing by FACS buffer, the cells were incubated with Alexa Fluor 647 conjugated anti-human IgG (Jackson ImmunoResearch) for 30 minutes in 4° C. After washing by FACS buffer twice, the samples were acquired in NovoCyte Flow Cytometer and analyzed by NovoExpress software.

[2] = target: T2, Human CD93 recombinant protein (Sino Biological Inc, Catalog #12589-H08H) (human, UniProt Q9NPY3 22-580); test: ELISA, His-tagged human CD93 coated, OD450
T2 construct: Biotinylated (EZ-LINK NHS-PEG4 biotin) in the BLI assays; also called hCD93; His-tagged human CD93
T2 sequence (looked up): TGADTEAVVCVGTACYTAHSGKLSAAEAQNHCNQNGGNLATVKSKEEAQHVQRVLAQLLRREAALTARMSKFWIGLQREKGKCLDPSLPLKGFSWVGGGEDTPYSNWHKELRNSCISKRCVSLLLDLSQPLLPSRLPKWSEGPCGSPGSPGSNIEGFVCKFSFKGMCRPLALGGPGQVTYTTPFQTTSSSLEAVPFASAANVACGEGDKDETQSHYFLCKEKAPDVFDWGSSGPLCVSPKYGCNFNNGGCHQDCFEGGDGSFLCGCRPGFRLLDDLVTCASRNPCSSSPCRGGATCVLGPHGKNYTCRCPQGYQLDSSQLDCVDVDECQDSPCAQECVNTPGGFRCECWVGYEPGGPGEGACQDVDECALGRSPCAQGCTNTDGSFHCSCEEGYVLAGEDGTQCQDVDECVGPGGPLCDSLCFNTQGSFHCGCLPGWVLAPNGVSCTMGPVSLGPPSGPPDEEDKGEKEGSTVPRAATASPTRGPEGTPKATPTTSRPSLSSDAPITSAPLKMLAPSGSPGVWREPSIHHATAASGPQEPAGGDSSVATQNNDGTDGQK
Experimental: His-tagged human CD93 was coated onto a 96 well plate at 1 μg/mL in 1×PBS overnight at 4° C. The plate was washed with ELISA wash buffer (Boston BioProduct, Inc.) and the wells were blocked with ELISA blocking buffer for 1 hour at 37° C. […] The plate was washed with ELISA wash Buffer. HRP-conjugated anti-human Fc antibody was incubated for 1 hour at 37° C. The plate was washed with ELISA wash Buffer. HRP substrate was added for indirect detection of the antibodies binding to CD93.

[3] = target: T3, rh VEGFA (recombinant human VEGFA) (human, UniProt P15692-4 27-191, limits assumed); test: ELISA, antigen coated at 1 µg/mL
Experimental: (§1) His-tagged human CD93, cyno CD93, human VEGFA, and mouse VEGFA were coated onto a 96 well plate at 1 μg/mL in 1× PBS overnight at 4′C. The plate was washed with ELISA wash buffer (Boston BioProduct, Inc.) and the wells were blocked with 3% BSA/PBS ELISA blocking buffer for 1 hour at 37′C. […] The plate was washed with ELISA wash Buffer. HRP conjugated Anti-human Fc was added and incubated for one hour at 37° C. The plate was washed with ELISA wash buffer and read in a microplate reader at 405 nm.

[4] = target: T2, Human CD93 recombinant protein (Sino …); test: ELISA, hCD93-His coated, OD450
Experimental: His-tagged human CD93 was coated onto a 96 well plate at 1 μg/mL in 1×PBS overnight at 4° C. The plate was washed with ELISA wash buffer (Boston BioProduct, Inc.) and the wells were blocked with ELISA blocking buffer for 1 hour at 37° C. Purified antibodies were serially diluted in ELISA blocking buffer (Boston BioProduct, Inc.) and incubated on the receptor for 1 hour at 37° C. The plate was washed with ELISA wash Buffer. […] The plate was washed with ELISA wash buffer. HRP substrate was added for indirect detection of the antibodies binding to CD93.

[5] = target: T2, Human CD93 recombinant protein (Sino …); test: BLI (Octet QKe), biotinylated human CD93 on streptavidin biosensors
Experimental: The binding affinity of anti-CD93 antibodies was determined with bio-layer interferometry using Octet QKe (Fortebio). […] Human CD93 recombinant protein (Sino Biological Inc, Catalog #12589-H08H) was biotinylated using EZ-LINK NHS-PEG4 biotin (Thermo Fisher Scientific). Streptavidin biosensors (Fortebio) were used to load biotinylated CD93 protein (300 seconds in 5 μg/ml). Baseline was stabilized for 60 seconds in 1×kinetics buffer (Fortebio) before anti-CD93 antibodies, at a serial dilution, were allowed to associate for 300 seconds with captured protein. Then the sensors were dissociated in 1× kinetics buffer for 600 seconds. […] (FIG. 41).

[6] = target: T2, Human CD93 recombinant protein (Sino …); test: summary table, column Octet (hCD93)
[7] = target: T2, Human CD93 recombinant protein (Sino …); test: summary table, column ELISA (hCD93)
[8] = target: T4, rm VEGFA (recombinant mouse VEGFA) (mouse, UniProt Q00731-2 27-190, limits assumed); test: ELISA, mVEGFA coated at 1 µg/mL, anti-human Fc HRP; single bars, concentration not given
T4 sequence (looked up): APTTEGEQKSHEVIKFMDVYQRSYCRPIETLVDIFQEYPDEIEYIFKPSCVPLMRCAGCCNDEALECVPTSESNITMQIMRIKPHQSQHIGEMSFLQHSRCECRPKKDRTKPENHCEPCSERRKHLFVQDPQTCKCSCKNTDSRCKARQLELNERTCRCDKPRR
Experimental: as §1

[9] = target: T3, rh VEGFA (recombinant human VEGFA); test: BLI (Octet), biotinylated rh VEGFA on streptavidin biosensors, sample in serial dilution
Experimental: (§2) The rh VEGFA was made in-house and biotinylated using EZ-LINK NHS-PEG4 biotin (Thermo Fisher Scientific). Streptavidin biosensors (Fortebio) were used to load biotinylated rh VEGFA protein (300 seconds in 5 μg/ml). […] Then the sensors were dissociated in 1× kinetics buffer for 600 seconds.

[10] = target: T3, rh VEGFA (recombinant human VEGFA); test: BLI (Octet QKe), biotinylated rh VEGFA on streptavidin sensors
Experimental: as §2

[11] = target: T1, Human CD93 on cells (human CD93 …); test: flow cytometry on human CD93 expressing CHO cells (10 µg/ml by the text)
[12] = target: T2, Human CD93 recombinant protein (Sino …); test: ELISA, antigen coated at 1 µg/mL
Experimental: as §1

EC50 [1]: 0.4 nM
EC50 [2]: 0.041 nM
binding result [3]: no binding
EC50 [4]: 0.02 nM
Kd [5]: 0.588 nM
koff [5]: 0.000335 s⁻¹
kon [5]: 570000 M⁻¹ s⁻¹
Kd [6]: 0.588 nM
EC50 [7]: 0.041 nM
binding result [8]: no binding
B1: 7F3-hIgG1 (recombinant chimeric 7F3) (antibody, V domains shown)
VH: QVQLQQSGADLVRPGASVKLSCKASGYTFTDYEMHWVKQTPVYGLEWIGGIDPETGDTAYNQNFKGKATLTADKSSSAAYMELRSLTSEDSAVYYCTNYGNLYYYAMDYWGQGTSVTVSS
VL: ENVLTQSPAIMSASPGEKVTMTCRASSSVSSSYLHWYQQKSGASPKLWIYSTSNLAFGVPARFSGSGSGTSYSLTISSVEAEDAATYYCQQYSGYPLTFGSGTKLEIK
notes: also called chimeric 7F3-hIgG1; recombinant 7F3

Kd [9]: 2.01 nM
koff [9]: 0.000121 s⁻¹
kon [9]: 60300 M⁻¹ s⁻¹
Kd [10]: 2 nM
B2: humanized 7F3/VEGFRFc (h7F3/VEGFRFc) (bispecific antibody, human IgG1, kappa)
heavy: not shown
light: EIVLTQSPSSLSASVGDRVTITCRASSSVSSSYLHWYQQKPGKAPKLLIYSTSNLAFGVPSRFSGSGSGTSYTFTISSLQPEDIATYYCQQYSGYPLTFGSGTKLEIKRTVAAPSVFIFPPSDEQLKSGTASVVCLLNNFYPREAKVQWKVDNALQSGNSQESVTEQDSKDSTYSLSSTLTLSKADYEKHKVYACEVTHQGLSSPVTKSFNRGEC
notes: Full-length human IgG1 with VEGF-trap on the C-terminus of both heavy chains; also called humanized 7F3-Aflibercept; h7F3-VEGF trap

binding result [11]: binds
binding result [12]: binds
B3: chimeric 7F3/VEGFRFc (chimeric 7F3-Aflibercept) (bispecific antibody, human IgG1, kappa)
heavy: not shown
light: ENVLTQSPAIMSASPGEKVTMTCRASSSVSSSYLHWYQQKSGASPKLWIYSTSNLAFGVPARFSGSGSGTSYSLTISSVEAEDAATYYCQQYSGYPLTFGSGTKLEIKRTVAAPSVFIFPPSDEQLKSGTASVVCLLNNFYPREAKVQWKVDNALQSGNSQESVTEQDSKDSTYSLSSTLTLSKADYEKHKVYACEVTHQGLSSPVTKSFNRGEC
notes: also called chimeric 7F3/VEGFR construct
